Laboratory results from article PMC7238552 (Cell, 2020).

B1: C6-RGD3 Fab (Fab, V domains shown)
VH: QIQLVQSGPELKKPGETVKISCKASGYTFTDYSMHWVKQAPGKGLKWVARINTETGEPTFADDFRGRFAVSLETSASTAYLQINNLKNEDTATYFCAIFYYGRDSWGQGTTLTVSS
VL: DIVMTQSPSSLAVSAGEKVTMSCKSSQSLLGRGDLGRLKKNALAWYQQKPGQSPRLLIYWASTRESGVPDRFTGSGSGTDFTLTISSVQAEDLAVYYCKQSYNLLSFGAGTKLELK
B2: C6-RGD3 antibody (mouse IgG2a) (antibody, V domains shown)
VH: B1 VH
VL: B1 VL

Tests used:
[1] = biological target: human integrin αvβ8 ectodomain (for structural studies) (Homo sapiens, UniProt P06756;P26012); assay: cryo-EM structure
Sequence of human integrin αvβ8 ectodomain (for structural studies) (P06756 31-992, chain 1 of 2): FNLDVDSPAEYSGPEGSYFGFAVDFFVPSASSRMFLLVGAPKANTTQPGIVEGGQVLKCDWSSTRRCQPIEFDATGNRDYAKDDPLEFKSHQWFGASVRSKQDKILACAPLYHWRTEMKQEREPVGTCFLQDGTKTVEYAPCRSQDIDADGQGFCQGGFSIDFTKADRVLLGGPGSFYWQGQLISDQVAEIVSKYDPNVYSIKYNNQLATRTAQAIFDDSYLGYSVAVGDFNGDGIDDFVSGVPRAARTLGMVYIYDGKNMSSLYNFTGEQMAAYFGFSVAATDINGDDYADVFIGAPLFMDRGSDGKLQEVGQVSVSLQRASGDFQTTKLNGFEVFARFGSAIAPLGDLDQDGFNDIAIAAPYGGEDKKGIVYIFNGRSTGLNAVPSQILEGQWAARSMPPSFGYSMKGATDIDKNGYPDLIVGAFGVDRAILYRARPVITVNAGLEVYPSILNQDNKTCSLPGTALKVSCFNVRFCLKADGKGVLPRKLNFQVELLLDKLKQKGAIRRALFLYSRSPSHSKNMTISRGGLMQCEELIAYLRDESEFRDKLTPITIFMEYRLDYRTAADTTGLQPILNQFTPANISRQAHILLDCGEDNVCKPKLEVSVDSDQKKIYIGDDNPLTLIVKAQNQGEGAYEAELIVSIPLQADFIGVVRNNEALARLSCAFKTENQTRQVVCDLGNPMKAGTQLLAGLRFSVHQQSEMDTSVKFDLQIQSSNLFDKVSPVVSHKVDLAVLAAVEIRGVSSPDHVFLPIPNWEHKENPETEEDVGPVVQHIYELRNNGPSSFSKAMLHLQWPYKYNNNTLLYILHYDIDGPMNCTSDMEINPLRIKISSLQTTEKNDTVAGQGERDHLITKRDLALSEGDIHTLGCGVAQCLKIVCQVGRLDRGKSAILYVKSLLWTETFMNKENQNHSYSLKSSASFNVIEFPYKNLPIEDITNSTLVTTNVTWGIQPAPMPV
Sequence of human integrin αvβ8 ectodomain (for structural studies) (P26012 43-684, chain 2 of 2): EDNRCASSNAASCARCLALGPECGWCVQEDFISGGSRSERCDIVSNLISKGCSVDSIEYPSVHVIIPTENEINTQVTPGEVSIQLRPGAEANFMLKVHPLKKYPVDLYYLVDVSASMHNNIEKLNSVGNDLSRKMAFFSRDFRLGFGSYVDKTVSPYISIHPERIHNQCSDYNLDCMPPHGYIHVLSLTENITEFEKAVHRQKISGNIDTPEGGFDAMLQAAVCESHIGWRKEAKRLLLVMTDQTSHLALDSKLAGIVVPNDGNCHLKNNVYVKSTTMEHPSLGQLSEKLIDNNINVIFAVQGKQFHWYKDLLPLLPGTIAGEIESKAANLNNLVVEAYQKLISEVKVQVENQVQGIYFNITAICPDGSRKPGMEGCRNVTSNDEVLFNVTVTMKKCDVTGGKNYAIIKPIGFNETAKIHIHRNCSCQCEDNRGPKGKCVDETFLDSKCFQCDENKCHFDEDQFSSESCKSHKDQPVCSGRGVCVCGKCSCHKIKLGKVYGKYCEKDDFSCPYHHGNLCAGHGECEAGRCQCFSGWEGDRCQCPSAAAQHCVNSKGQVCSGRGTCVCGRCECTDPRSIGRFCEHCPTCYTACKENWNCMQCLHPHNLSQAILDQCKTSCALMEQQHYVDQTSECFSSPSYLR

[2] = biological target: recombinant integrin αvβ1 (R&D Systems) (Homo sapiens (assumed), UniProt P06756;P05556); assay: ELISA
Sequence of recombinant integrin αvβ1 (R&D Systems) (P06756 31-1048, chain 1 of 2): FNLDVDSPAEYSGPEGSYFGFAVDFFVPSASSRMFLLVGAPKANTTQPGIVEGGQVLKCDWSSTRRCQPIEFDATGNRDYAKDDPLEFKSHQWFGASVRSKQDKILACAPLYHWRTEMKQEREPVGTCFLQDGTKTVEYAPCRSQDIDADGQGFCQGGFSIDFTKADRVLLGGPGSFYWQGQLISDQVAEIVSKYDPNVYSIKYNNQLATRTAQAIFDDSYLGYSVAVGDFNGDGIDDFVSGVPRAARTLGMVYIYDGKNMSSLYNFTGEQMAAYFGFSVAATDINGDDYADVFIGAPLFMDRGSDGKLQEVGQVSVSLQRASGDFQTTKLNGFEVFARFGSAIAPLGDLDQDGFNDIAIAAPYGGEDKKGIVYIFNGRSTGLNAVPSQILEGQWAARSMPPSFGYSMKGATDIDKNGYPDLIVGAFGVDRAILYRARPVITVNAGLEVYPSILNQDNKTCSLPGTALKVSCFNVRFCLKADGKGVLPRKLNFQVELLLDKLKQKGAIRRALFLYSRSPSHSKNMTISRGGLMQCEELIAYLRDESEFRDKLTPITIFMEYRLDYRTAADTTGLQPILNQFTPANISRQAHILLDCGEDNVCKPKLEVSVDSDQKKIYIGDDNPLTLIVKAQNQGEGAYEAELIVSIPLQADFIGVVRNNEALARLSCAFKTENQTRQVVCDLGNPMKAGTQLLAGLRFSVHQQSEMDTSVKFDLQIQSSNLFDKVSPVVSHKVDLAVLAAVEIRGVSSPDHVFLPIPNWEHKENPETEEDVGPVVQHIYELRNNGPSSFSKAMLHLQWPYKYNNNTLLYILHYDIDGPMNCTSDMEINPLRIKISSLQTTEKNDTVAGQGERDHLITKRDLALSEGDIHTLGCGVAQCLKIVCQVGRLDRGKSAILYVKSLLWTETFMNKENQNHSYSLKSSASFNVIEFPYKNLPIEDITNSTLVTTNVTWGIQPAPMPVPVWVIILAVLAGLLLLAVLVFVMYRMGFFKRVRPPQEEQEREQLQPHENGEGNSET
Sequence of recombinant integrin αvβ1 (R&D Systems) (P05556 21-728, chain 2 of 2): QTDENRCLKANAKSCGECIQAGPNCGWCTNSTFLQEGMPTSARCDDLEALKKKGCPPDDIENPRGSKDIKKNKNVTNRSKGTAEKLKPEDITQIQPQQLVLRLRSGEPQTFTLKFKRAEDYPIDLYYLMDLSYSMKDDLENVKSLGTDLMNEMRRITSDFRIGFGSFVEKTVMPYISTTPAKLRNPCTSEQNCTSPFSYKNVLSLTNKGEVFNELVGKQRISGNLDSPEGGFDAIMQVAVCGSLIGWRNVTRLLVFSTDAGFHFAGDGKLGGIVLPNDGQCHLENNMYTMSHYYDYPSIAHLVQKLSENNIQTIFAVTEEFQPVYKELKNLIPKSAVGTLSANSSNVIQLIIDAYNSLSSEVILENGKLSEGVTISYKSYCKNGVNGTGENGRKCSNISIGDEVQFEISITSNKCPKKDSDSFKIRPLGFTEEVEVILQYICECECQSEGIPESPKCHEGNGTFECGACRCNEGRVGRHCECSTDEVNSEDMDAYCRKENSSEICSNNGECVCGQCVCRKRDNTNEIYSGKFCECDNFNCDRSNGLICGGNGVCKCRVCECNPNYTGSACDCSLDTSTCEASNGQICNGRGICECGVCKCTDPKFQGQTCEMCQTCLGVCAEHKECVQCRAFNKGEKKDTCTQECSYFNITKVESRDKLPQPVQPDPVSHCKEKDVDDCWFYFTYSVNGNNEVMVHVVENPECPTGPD

[3] = biological target: recombinant integrin αvβ3 (R&D Systems) (Homo sapiens (assumed), UniProt P06756;P05106); assay: ELISA
Sequence of recombinant integrin αvβ3 (R&D Systems) (P06756 31-1048, chain 1 of 2): as the sequence (P06756 31-1048, chain 1 of 2) above
Sequence of recombinant integrin αvβ3 (R&D Systems) (P05106 27-718, chain 2 of 2): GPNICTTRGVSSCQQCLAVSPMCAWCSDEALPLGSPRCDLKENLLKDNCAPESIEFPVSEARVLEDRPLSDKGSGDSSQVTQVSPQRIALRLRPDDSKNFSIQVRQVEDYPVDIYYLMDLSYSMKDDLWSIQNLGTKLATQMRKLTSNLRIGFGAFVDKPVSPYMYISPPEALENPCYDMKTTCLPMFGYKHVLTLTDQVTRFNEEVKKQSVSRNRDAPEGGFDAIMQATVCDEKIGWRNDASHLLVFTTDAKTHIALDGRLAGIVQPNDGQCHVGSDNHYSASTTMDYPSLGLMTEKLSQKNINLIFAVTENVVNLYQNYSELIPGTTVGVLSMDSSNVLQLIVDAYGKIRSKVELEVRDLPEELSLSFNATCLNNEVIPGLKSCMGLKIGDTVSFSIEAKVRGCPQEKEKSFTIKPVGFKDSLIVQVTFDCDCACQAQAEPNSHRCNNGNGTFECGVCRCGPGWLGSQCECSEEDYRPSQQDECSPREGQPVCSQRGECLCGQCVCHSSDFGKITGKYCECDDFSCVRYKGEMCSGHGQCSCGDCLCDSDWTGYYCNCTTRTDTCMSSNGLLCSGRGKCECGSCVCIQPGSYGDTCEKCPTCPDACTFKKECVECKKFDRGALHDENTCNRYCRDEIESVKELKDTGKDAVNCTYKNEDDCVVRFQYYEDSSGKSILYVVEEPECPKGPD

[4] = biological target: recombinant integrin αvβ5 (R&D Systems) (Homo sapiens (assumed), UniProt P06756;P18084); assay: ELISA
Sequence of recombinant integrin αvβ5 (R&D Systems) (P06756 31-1048, chain 1 of 2): as the sequence (P06756 31-1048, chain 1 of 2) above
Sequence of recombinant integrin αvβ5 (R&D Systems) (P18084 24-719, chain 2 of 2): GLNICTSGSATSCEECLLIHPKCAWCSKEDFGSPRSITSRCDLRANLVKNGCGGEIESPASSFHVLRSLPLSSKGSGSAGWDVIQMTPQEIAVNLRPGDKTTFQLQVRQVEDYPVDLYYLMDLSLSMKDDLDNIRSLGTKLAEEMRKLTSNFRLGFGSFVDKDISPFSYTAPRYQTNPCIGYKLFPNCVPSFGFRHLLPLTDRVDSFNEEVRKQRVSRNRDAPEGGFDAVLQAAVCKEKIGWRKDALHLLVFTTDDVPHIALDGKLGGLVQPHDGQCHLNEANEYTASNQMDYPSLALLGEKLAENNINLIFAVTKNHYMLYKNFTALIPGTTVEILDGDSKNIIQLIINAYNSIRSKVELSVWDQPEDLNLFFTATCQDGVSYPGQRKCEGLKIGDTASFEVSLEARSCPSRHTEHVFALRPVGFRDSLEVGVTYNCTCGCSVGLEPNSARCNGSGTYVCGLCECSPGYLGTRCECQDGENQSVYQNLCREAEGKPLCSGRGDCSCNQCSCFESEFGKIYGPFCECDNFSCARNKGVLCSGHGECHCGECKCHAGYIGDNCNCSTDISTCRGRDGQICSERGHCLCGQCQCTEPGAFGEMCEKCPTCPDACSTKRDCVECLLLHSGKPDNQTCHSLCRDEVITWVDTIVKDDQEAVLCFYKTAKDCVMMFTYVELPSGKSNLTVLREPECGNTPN

| Binder | binding result [1] | binding result [2] | binding result [3] | binding result [4] |
| --- | --- | --- | --- | --- |
| B1 | binds | – | – | – |
| B2 | – | no binding | no binding | no binding |
